Assay results taken from paper PMC5290273 (Nature Communications, 2017).

B1: Sumo-ELL2^Occ, wild type [human] / fluorescently labelled AFF1^ELLBow peptide 358–390 [modified: C-FAM-GABA- at the N-terminus (FAM: 5-carboxyfluoroscein; GABA: γ-amino-butyric acid spacer); C-terminal amide; C-FAM-GABA- at the N-terminus … (parent complex)
chain 1: EPSAIELPDYLIKYIAIVSYEQRQNYKDDFNAEYDEYRALHARMETVARRFIKLDAQRKRLSPGSKEYQNVHEEVLQEYQKIKQSSPNYHEEKYRCEYLHNKLAHIKRLIGEFDQQQAESWS
chain 2: EILKEMTHSWPPPLTAIHTPSTAEPSKFPFPTK
B2: His6-tagged wild-type AFF4^ELLBow (AFF4 301–351) [human] / Sumo-ELL2^Occ, wild type [human] (parent complex)
chain 1: PSQPLDASASGDVSCVDEILKEMTHSWPPPLTAIHTPCKTEPSKFPFPTKE
chain 2: B1 chain 1

Variants of: B1
Test: fluorescence polarisation, direct titration; signal at the highest Sumo-ELL2 concentration, about 30 µM read from the x axis; read off a plot

Q: Which response does the source give for chain 1 EPSAIELPDYLIKYIAIVSYEQRQNYKDDFNAEYDEYRALEARMETVARRFIKLDAQRKRLSPGSKEYQNVHEEVLQEYQKIKQSSPNYEEEKYRCEYLHAKLAHITRLIGEFDQQQAESWS [chain 1 H41E, chain 1 H90E, chain 1 N101A, chain 1 K107T] here?
A: ~7 mP

Variants of: B2
Test: fluorescence polarisation competition; residual anisotropy at the highest unlabelled AFF4 concentration, about 30 µM read from the x axis; higher residual anisotropy = weaker competition; read off a plot

Q: For chain 1 PSQPLDASASGDVSCVDEILKEMTHSWPPPDTADHTPCKTEPSKFPFPTKE [chain 1 L31D, chain 1 I34D], which response is on record?
A: ~17 mP

Q: Which response does the source give for chain 1 PSQPLDASASGDVSCVDEILKEMTHSDPPPDTADHTPCKTEPSKFPFPTKE [chain 1 W27D, chain 1 L31D, chain 1 I34D] here?
A: ~46 mP

Q: chain 1 PSQPLDASASGDVSCVDEILKEDTHSWPPPDTADHTPCKTEPSKFPFPTKE [chain 1 M23D, chain 1 L31D, chain 1 I34D] was tested. Which response did it give?
A: ~63 mP

Variants of: B2
Test: as above
Remark: another data set of the same source

Q: How did the response turn out when chain 1 PSQPLDASASGDVSCVPPILKEMTHSWPPPLTAIHTPCKTEPSKFPFPTKE [chain 1 D17P, chain 1 E18P] was run?
A: ~7 mP
